Data as given in PMC4730555.

Legend:
[1] = target: ectodomain of RGMB (eRGMB), wild type (human) (UniProt Q6NW40); test: AUC
[2] = target: ectodomain of RGMB (eRGMB), wild type (human) (UniProt Q6NW40); test: multiangle light scattering
eRGMB-P206N (human) = eRGMB-P206N (human) (UniProt Q6NW40); test: AUC
[3] = target: ectodomain of RGMB (eRGMB), wild type (human) (UniProt Q6NW40); test: AUC; remark: listed apart in the source
[4] = target: RGMA, full-length ectodomain (human) (UniProt Q96B86); test: SPR
[5] = target: RGMC, full-length ectodomain (human) (UniProt Q6ZVN8); test: SPR
[6] = target: ectodomain of RGMB (eRGMB), wild type (human) (UniProt Q6NW40); test: SPR

Chain of UniProt Q96B86 (Q96B86 48-424): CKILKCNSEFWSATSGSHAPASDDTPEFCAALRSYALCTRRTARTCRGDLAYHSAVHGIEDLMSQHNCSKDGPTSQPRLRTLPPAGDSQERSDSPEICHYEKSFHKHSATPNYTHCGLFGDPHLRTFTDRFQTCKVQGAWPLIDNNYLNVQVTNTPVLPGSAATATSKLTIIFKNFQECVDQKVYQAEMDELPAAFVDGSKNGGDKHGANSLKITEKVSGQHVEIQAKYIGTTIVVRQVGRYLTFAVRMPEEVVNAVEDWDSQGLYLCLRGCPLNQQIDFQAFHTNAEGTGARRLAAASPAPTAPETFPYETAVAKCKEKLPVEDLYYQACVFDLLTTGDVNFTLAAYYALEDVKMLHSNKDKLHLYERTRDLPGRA
Chain of UniProt Q6ZVN8 (Q6ZVN8 36-400): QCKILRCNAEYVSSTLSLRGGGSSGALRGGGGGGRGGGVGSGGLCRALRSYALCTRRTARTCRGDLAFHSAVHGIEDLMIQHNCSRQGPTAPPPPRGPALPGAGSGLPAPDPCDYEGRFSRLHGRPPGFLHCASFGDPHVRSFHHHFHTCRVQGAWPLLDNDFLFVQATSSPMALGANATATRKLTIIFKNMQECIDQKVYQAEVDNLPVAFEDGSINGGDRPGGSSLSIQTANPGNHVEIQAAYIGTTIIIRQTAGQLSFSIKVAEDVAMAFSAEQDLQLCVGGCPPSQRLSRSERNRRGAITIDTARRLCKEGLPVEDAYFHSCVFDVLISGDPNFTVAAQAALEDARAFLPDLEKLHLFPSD

stoichiometry N [1]	stoichiometry N [2]	stoichiometry N (eRGMB-P206N (human))	stoichiometry N [3]	interaction relative to the equivalent NEO1 construct [4] [fold]	interaction relative to the equivalent NEO1 construct [5] [fold]	interaction relative to the equivalent NEO1 construct [6] [fold]	Substance
1	1	1	1	–	–	–	NEO1_FN56M (from UniProt P97798 883-1136) (domain or fragment)
–	–	–	–	0.001	0.001	0.001	full-length DCC ectodomain (from UniProt P43146 26-1097) (domain or fragment)
